The record followed here is article PMC2830067 (Journal of molecular biology, 2009).

The target in this assay is T1, Aquifex aeolicus GatCAB B-subunit (GatB) (Aquifex aeolicus, UniProt O66766 1-478).
T1 sequence (looked up): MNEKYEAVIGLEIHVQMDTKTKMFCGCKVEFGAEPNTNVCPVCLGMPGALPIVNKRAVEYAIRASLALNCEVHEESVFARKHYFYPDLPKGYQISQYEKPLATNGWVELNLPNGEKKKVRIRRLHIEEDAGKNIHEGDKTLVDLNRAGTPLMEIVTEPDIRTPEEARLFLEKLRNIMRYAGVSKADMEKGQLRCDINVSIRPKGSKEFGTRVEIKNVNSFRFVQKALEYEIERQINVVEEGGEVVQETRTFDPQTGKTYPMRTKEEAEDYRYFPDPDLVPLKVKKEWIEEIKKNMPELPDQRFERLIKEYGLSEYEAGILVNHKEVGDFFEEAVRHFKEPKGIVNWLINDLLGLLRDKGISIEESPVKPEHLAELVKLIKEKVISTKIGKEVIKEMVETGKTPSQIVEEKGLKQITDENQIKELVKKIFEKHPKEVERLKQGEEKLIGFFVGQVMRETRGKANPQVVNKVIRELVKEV
The assay can be described thus: crystal structure.

B1: Aquifex aeolicus GatCAB C-subunit (GatC) (natural protein, UniProt O67904 1-94, looked up)
chain: MVDREWVLKIAKLARLELKEEEIEVFQKQLSDILDFIDQLKELDTENVEPYIQEFEETPMREDEPHPSLDREKALMNAPERKDGFFVVPRVVEV
For the molecule B1, the binding result is listed as “binds”.

B2: Aquifex aeolicus GatCAB A-subunit (GatA) (enzyme, UniProt O66610 1-478, looked up)
chain: MLWKKSLSELRELLKRGEVSPKEVVESFYDRYNQTEEKVKAYITPLYGKALKQAESLKERELPLFGIPIAVKDNILVEGEKTTCASKILENFVAPYDATVIERLKKAGALIVGKTNLDEFAMGSSTEYSAFFPTKNPWDLERVPGGSSGGSAASVAVLSAPVSLGSDTGGSIRQPASFCGVIGIKPTYGRVSRYGLVAFASSLDQIGVFGRRTEDVALVLEVISGWDEKDSTSAKVPVPEWSEEVKKEVKGLKIGLPKEFFEYELQPQVKEAFENFIKELEKEGFEIKEVSLPHVKYSIPTYYIIAPSEASSNLARYDGVRYGYRAKEYKDIFEMYARTRDEGFGPEVKRRIMLGTFALSAGYYDAYYLKAQKVRRLITNDFLKAFEEVDVIASPTTPTLPFKFGERLENPIEMYLSDILTVPANLAGLPAISIPIAWKDGLPVGGQLIGKHWDETTLLQISYLWEQKFKHYEKIPLT
modifications: acyl-enzyme intermediate at Ser171 formed with Asn or Gln in the co-crystals
Regarding B2, the binding result is recorded as “binds”.
